Test: yeast display, Sf9 membrane polyspecificity reagent, FACS + sequencing; frameworks hold sequencing errors
How it was run: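 Galactose-induced (36–48 hours) yeast carrying a synthetic nanobody display library were exposed to 10% biotinylated, detergent-solubilized Sf9 membrane reagent at 4 °C for 1 hour. FACS followed streptavidin microbead enrichment, using low and high (top ~1%) gates for expression (anti-HA) and reagent binding (streptavidin). Colony PCR, MiSeq 2 × 250 sequencing and CDR-length filtering followed. Labels for polyreactivity reflect the gate of origin.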

| Sequence | polyreactivity (PSR sort gate) |
| --- | --- |
| QVQLVESGGGLVQAGGSLRLSCTASGSTFVAYAMGWYRQAPGKERELVAAITSSGGRTYYADSVKGRFTISRDNAKNTVYLQMNSLKPEDTAVYYCAAVTHGRYDWGQGTQVTVSS | high polyreactivity |
| QVQLVESGGGLVQAGGSLRLSCVASGRIFQSYAMGWYRQAPGKERELVARITGGSSTYYADSVKGRFTISRDNAKNTVYLQMNSLKPEDTAVYYCAARTRGPDRARYDYWGQGTQVTVSS | low polyreactivity |
| QVQLVESGGGLVQAGGSLRLSCVASGRTFGNNAMGWYRQAHGKERELVAAITSGGSTNYADSVKGCFTISRDNAKNTVYLQMNSLKPEDTAVYYCAAKQYRAGGGYWGQGSQVTVSS | high polyreactivity |
| QVQLVESGGGLVQAGGSLRLSCVASGSISQTYAMGWYRQAPGKERELVAAISSSGASTYYADSVKGRFTISRDNAKNTVYLQMNSLKPEDTAVYYCNADKFRRYGYWGQGTQVTVSS | high polyreactivity |
| QVQLVESGGGLVQAGGSLRLSFAASGFTFYYYTMGWYRQEPGKERELVAGISRRRGSTRYADSVKGRFTISRDNAKNTVYLQMNSLKPEDTAVYYCAAYPVVTEFDYWGQGTQVTVSS | high polyreactivity |
| QVQLVESGGGLVQAGGSLRLSFAASGFTISYYAMGWYRQAPGKERELVAAISQSGGSTYYADSVKGRFTISRDNAKNTVYLQMNSLKPEDTAVYYCAADTYYNLGNYWGQGTQVTVSS | high polyreactivity |
| QVQLVESGGGLVQAGGSLRLSFAASGGIFRLYAMGWYRQAPGKERELVAAINGGGSTNYADSVKGRFTISRDNAKNTVYLQMNSLKPEDTAVYYCNAVQYYRFQVYEYDYWGQGTQVTVSS | high polyreactivity |
| QVQLVESGGGLVQAGGSLRLSFAASGNIFVYYAMGWYRQAPGKVRELVAAISFRGGTTYYADSVKGRFTISRDNAKNTVYLQMNSLKPEDTAVYYCAARTMPRVSRKTFGYWGQGTQVTVSS | low polyreactivity |
| QVQLVESGGGLVQAGGSLRLSFAASGRIFYNYAMGWYRQAPGTERELVAAITDSDGSTYADSVKGRFTISRDNAMNTVYFQMNSLKPEDTAVYYCAARRYYPYKYRYGYWGQGTQVTVSS | high polyreactivity |
| QVQLVESGGGLVQAGGSLRLSFAASGRIFYVYAMGWYRQAPGKERELVAAITYSGGSTYYADSVKGRFTISRDNAKNTVYLQMNSLKPEDTAVYYCATEGSYTRWSRGLDYWGQGTQVTVSS | low polyreactivity |
| QVQLVESGGGLVQAGGSLRLSFAASGRIIGYYAMGWYRQAPGKERELVAAITRGGSTNYADSVKGRFTISRDNAKNTVYLQMNSLKPEDTAVYYCAADLARYGKRYDYWGQGTQVTVSS | low polyreactivity |
| QVQLVESGGGLVQAGGSLRLSFAASGRTFEPYPLGWYRQAPGKERELVAAIDVGDGTTYYAYSVKGRFTISRDNAKYTVYLELNSLKPEDTAVYYCAADVIGFVGSEDYWGQGTQVTVSS | low polyreactivity |
| QVQLVESGGGLVQAGGSLRLSFAASGRTFVRYAMVWYRQAPGKERELVAAISWSGGSTYYADSVKGRFTISRDNAKNTVYLQMNSLKPEDTAVYYCAAYYRGGNFDYWGQGTQVTLSS | high polyreactivity |
| QVQLVESGGGLVQAGGSLRLSFAASGRTFYQYGQGWYRQAPGKERELVAAISDSGGGTYYADSVKGRFTFSRDNAKNTVYLQMNSLIPEDTAVYYCAATYVGPRRRYYYWGQGTQVTVSS | high polyreactivity |
| QVQLVESGGGLVQAGGSLRLSFAASGSIFFGNAKGCYRQAPVKERELVAAITRRGGSTYYADSVKGRFTISRDNAKNPVYLQMYSLKAEDTAVYYCNGVSKRYGYGYWGQGTQVTVSS | high polyreactivity |
| QVQLVESGGGLVQAGGSLRLSFAASGSILSYYAMGWYTQAPGKERELGAAISKSGGRTYYADSVKGRFTISRDNEKNTVYLQMNSLKPEDTAVYYCAADRYYLSRRPVQNGNEYWGQGTQVTVSS | high polyreactivity |
| QVQLVESGGGLVQAGGSLRLSFAASGSTFHYYAMGWYRQAPGKERELVAAINSGARTYYADSVKGRFTISRDNAKNTVYLQMNSLKPEDTAVYYCAADDSYRSIGGDYWGQGTQVTVSS | low polyreactivity |
| QVQLVESGGGLVQAGGSLRLSFAASGSTFPKYAMRGYRPAPGKQRELVASISVTTGSTNYADSEKGRFTISRDNAKNTVYLQMNSLKPEDTAVYYCAADTVYRTHHYAQHYYYWGQGTLVTVSS | high polyreactivity |
| QVQLVESGGGLVQAGGSLRLSGAASGFTFFINGMGWYRQAPGKVRELVAAIRSSGASTYYADSVKGRFTISRDNAKNTVYLQMNSLKPEDTAVYYCNARSRVGNSVADYDYCGQGTQVTVSS | low polyreactivity |
| QVQLVESGGGLVQAGGSLRLSGAASGITFGDYAMGWYRQEPGKERELVAAISYSGGSTYYTDSVKGRFTISRDNAKNTVYLQMNSLKPEDTAVYYCAARFRQLGLAYYYWGQGTQVTVSS | high polyreactivity |
| QVQLVESGGGLVQAGGSLRLSGAASGLIFSRYAMGWYRQAPGKVRELVAAITSGTSTYDADSVKGRFTISRDNAKNTVYKQMNSLKPEDTAGYYCAARWWTYNARDYPDYYWGQGTQVTVSS | high polyreactivity |
| QVQLVESGGGLVQAGGSLRLSGAASGRYLFTWTAMGWYRQAPGIERELVAGITSGGNTYYADSVKGRFTISRDNPKNTVYLQMNSLKPEDTAVYYCAKGDGRRGDPYSRYDYCGQGTQVTVSS | low polyreactivity |

| Sequence | polyreactivity (PSR sort gate) |
| --- | --- |
| QVQLVESGGGLVQAGGSLRLSGAASGSIFPGYAMGWYRQPPGKERELVATITWSGGSTYYADSVKGRFTISRDNAKNTVYLQMNSLKPEDSAVYYCAAERSWYTGFARDYDYWGQGTQVTVSS | low polyreactivity |
| QVQLVESGGGLVQAGGSLRLSGAASGSIFSVYAMGWYRQAPGKERELVASISRSGGSTYYADSVKGRFTISRDNAKNTVYLQMNSLKPEDTAVYYCAAYHPIQEYDYWGQGTQVTVSS | high polyreactivity |
| QVQLVESGGGLVQAGGSLRLSGAATGSIFKIMGWYRQAPGKERELVAAISSSVGNTYYADSVKGRFTISRDNAKNTVYLQMNSLKPEDTAVYYCAAQSKYYQYYSWGQRTQVTVSS | high polyreactivity |
| QVQLVESGGGLVQAGGSLRLSGASYGFIFVWYAMGWYRQAPGKEREFVAAITSLGGSTYYADSVKGRFTISRDNEKNSVYLHMYSLNPEDTADYYCNAEFFYRGSGYDSWGQGTQVTVSS | high polyreactivity |
| QVQLVESGGGLVQAGGSLRLSLAASGSIFARYAMGWYRQAPGKERELVAAITYTGGRTYYADSVKGRFTISSDYAKNTVYLKMNSLKPEDTAVFYCAKDGQATVRRGYDYWGQGTQVTVSS | high polyreactivity |
| QVQLVESGGGLVQAGGSLRLSRAASGFTFPAYTMGWYRQAPGKERELVAAITSSGGNTYYADSVKGRFTISRDNAKHTVYLQMNSLKPEDTAVYYCATVSVRWPSNDHVRYDYWGQGTQVTVSS | low polyreactivity |
| QVQLVESGGGLVQAGGSLRLSRAASGITFGFNAMGWYRQAPGKERELVAAITWSVGRTYYADSVKGRFTISRDNAKNTVYLQMNSLKPEDTAVYYCAKVFEAGDDYFAYDYWGQGTQVTVSS | low polyreactivity |
| QVQLVESGGGLVQAGGSLRLSRAASGRTFYGYAMGWYRQAPGKESELVARIRSGGSTNYADSVKGRFTISRDNAKNTVYLQMNSLIPEDTAVYYCAARPGAAGYKYYYWGQGTQVTVSS | high polyreactivity |
| QVQLVESGGGLVQAGGSLRLSSAASAFIFSSYAMGWYRQAPWKERELVAAITRNGGSTYYADSVKGRFTISRDNAKNTVYLQMNSLKPEDTAVYYCAAQRWRGVGRFDYWGQGTQVTVSW | high polyreactivity |
| QVQLVESGGGLVQAGGSLRLSSAASAGIFAPNAMGLYRQAPGTEREFVAAISTGGGSTRYADSVKGRFTISRDNAKNTVYLQMNSLKPEDTAVYYCAATRVGVRRMDYWGQGTQVTVSS | low polyreactivity |
| QVQLVESGGGLVQAGGSLRLSSAASGFIFQSYAMGWYRQAPGKERELVAAISASGGRTYYADSVKGRFTISRDNAKNTVYLQMNSLKPEDTAVYYCAAYRSYWAVYPRMYYWGQGTQVTVSS | high polyreactivity |
| QVQLVESGGGLVQAGGSLRLSSAASGFTFYYNAMGWYRQAPGKERELVAAITRTGSTNYADSVKGRFTISRDNAKNTVYLQMNSLKPEDTAVYYCAKTYRRTNWGTYDYWGQGTQVTVSS | high polyreactivity |
| QVQLVESGGGLVQAGGSLRLSSAASGFTSSRNAMGWYRQAPGKERELVATISSGGDTYYADSVKGRFTISRDNAKNTVYLQMNSLKPEDTAVYYCATDRAERTGYTRYVKTYNYWGQGTQVTVSS | low polyreactivity |
| QVQLVESGGGLVQAGGSLRLSSAASGGIFRIYGMGSYRQAPGKERELVADISIGGRTTYADSVKGRFTISRDNAKNTVYLQMHSLKPEDTAVYYCKTPYWYRIGQRLAWYDYWGQGTQVTVSS | low polyreactivity |
| QVQLVESGGGLVQAGGSLRLSSAASGGTFDPYAMGWYRQAPGKERELVAAISDGRRTYYADSVKGRFTISRDNAKNSVYLLMNSRNTEETAVYYFDKCRLTSRICYYWWSAYHPSDYWGQGTQVSVSS | low polyreactivity |
| QVQLVESGGGLVQAGGSLRLSSAASGIIFITYAMGWYRQAPGKDRELVAVISFSGGGTYADSVKGRFTISRDNAKNTVYLQMNSLKPEDTAVYYCAARRHSVGDYWLIYDYWGQGTQVTVSS | low polyreactivity |
| QVQLVESGGGLVQAGGSLRLSSAASGIIFYNYAMGWDRQAPGKEWEFVAAISWSGGSTNYADSVKGRFTISRDTAKNTVDLQMNSLQPEDTAVYYCAAEYYGWYYGREAYWGQGTQVTVSS | low polyreactivity |
| QVQLVESGGGLVQAGGSLRLSSAASGINLEYYAMGWSRQAPGKERELVAAIDSTDGSTYYADSVKGRFTISRDNAKNTVYLQLNSLKPEDTAVYYWNVVVSWPLSLLRRDYWGQGTQVTVSS | low polyreactivity |
| QVQLVESGGGLVQAGGSLRLSSAASGITFCRNTMGWYRQAPGKERELVAAIDSGGNTYADSVKGRFTISRDNAKNTVNLHINSLKPEYTAVYYCAKDSGPRGSYGYAFDSWGQGTQVTVSS | low polyreactivity |
| QVQLVESGGGLVQAGGSLRLSSAASGITFDIYDMGWYRQAPGKERELVAAISYSGGSTYYADSVKGRFTISRDNAKNTVYLQMNSLTPEDTAVYDCAAAWYYNSDNEFDYWGQGTQVTVSS | low polyreactivity |
| QVQLVESGGGLVQAGGSLRLSSAASGITFITYAMVWYRQAPGKERELVAAISSSGGSTYYADSVKGRFTFSRDNAKNTVYLKMNSLKPEDTAVYYCAAEYVWYFGWKYGYWGQGTQVTVSS | high polyreactivity |

Source: the nanobody polyreactivity screen of Harvey et al. (2022)
